Assay results published in paper PMC8141872 (The Journal of Biological Chemistry, 2021).

B1: Ras suppressor-1 (Rsu-1), wild type, full length (natural protein, human, UniProt Q15404 1-277, looked up)
chain: MSKSLKKLVEESREKNQPEVDMSDRGISNMLDVNGLFTLSHITQLVLSHNKLTMVPPNIAELKNLEVLNFFNNQIEELPTQISSLQKLKHLNLGMNRLNTLPRGFGSLPALEVLDLTYNNLSENSLPGNFFYLTTLRALYLSDNDFEILPPDIGKLTKLQILSLRDNDLISLPKEIGELTQLKELHIQGNRLTVLPPELGNLDLTGQKQVFKAENNPWVTPIADQFQLGVSHVFEYIRSETYKYLYGRHMQANPEPPKKNNDKSKKISRKPLAAKNR
notes: after thrombin cleavage a few of its residues probably remain (surmised); also called Rsu-1 (WT); Rsu-1 WT; not shown: His6, N-terminal, cleaved

Legend:
Conditions in all cases: both partners purified
[1] = biological target: T1, PINCH-1 (residues 1-325), as subunit of the IPP complex (human, UniProt P48059 1-325); assay: SEC; Superose 6 10/300 GL; purified IPP heterotrimer mixed with purified Kindlin-2 and Rsu-1, 4 °C at least 2 h; 20 mM Tris pH 7.5, 150 mM NaCl, 5% glycerol, 0.2 mM TCEP; peak reloaded on the same column
T1 construct: human PINCH-1, residues 1-325; Stood in the assay within the IPP complex; source: E. coli, co-expressed with ILK and α-parvin, purified as the IPP complex
T1 sequence (P48059 whole entry, the tested form may be a part, one chain of several): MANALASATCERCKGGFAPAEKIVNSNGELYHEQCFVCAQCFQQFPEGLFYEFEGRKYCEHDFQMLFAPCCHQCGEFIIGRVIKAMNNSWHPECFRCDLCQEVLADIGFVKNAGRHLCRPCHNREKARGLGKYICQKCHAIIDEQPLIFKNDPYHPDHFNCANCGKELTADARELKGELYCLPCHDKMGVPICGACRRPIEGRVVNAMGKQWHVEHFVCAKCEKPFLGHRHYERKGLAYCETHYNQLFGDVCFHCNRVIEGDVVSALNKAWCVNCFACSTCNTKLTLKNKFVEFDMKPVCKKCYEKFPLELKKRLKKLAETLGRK

[2] = biological target: B1; assay: BLI; BLItz; GST-fused PINCH protein or GST (0.05 mg/ml) loaded on anti-GST biosensor, Rsu-1 WT or mutant in the mobile phase; 20 mM Tris pH 7.5, 150 mM NaCl, 1 mg/ml BSA, 0.05% Tween-20; 1:1 global fit; at least three measurements
[3] = biological target: T2, Kindlin-2 (residues 1-680) (human, UniProt Q96AC1 1-680); assay: SEC; Superose 6 10/300 GL; purified IPP heterotrimer mixed with purified Kindlin-2 and Rsu-1, 4 °C at least 2 h; 20 mM Tris pH 7.5, 150 mM NaCl, 5% glycerol, 0.2 mM TCEP; peak reloaded on the same column
T2 construct: human kindlin-2, residues 1-680; source: SUMO-tag cleaved by Ulp1
T2 sequence (looked up): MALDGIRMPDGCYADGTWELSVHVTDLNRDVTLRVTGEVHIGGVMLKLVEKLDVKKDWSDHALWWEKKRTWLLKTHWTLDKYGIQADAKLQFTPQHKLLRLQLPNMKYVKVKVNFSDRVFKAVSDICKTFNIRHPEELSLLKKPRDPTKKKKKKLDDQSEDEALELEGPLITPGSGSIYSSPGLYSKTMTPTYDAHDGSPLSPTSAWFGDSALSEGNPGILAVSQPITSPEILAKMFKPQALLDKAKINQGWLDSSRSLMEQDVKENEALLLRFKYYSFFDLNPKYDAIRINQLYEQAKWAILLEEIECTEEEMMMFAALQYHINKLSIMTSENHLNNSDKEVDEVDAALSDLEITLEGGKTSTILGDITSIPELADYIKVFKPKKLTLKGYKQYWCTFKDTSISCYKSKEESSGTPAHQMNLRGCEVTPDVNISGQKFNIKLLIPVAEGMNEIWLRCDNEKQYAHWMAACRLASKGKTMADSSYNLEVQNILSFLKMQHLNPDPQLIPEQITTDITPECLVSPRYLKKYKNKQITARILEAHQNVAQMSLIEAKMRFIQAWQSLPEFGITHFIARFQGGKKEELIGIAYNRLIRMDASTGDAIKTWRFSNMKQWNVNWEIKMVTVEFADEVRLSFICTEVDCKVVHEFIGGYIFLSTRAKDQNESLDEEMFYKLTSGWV

Binder: B1
- binding result [1]: binds

B2: GST-fused PINCH-2 LIM5S domain (residues 254-330) (domain or fragment, human, UniProt Q7Z4I7 254-330, looked up)
chain: GDVCYNCSHVIEGDVVSALNKAWCVSCFSCSTCNSKLTLKNKFVEFDMKPVCKRCYEKFPLELKKRLKKLSELTSRK
notes: human PINCH-2 LIM5 domain without the C-terminal 11 residues, residues 254-330; Cloned in pGEX4T1; held on the anti-GST biosensor; also called PINCH-2 LIM5S domain (WT); PINCH-2 LIM5 short domain; source: E. coli Rosetta 2 (DE3), purified (GSTrap)
- Kd [2]: 925 ± 194 nM

B3: Integrin-linked kinase (ILK, residues 1-452), as subunit of the IPP complex (natural protein, human, UniProt Q13418 1-452, looked up)
chain: MDDIFTQCREGNAVAVRLWLDNTENDLNQGDDHGFSPLHWACREGRSAVVEMLIMRGARINVMNRGDDTPLHLAASHGHRDIVQKLLQYKADINAVNEHGNVPLHYACFWGQDQVAEDLVANGALVSICNKYGEMPVDKAKAPLRELLRERAEKMGQNLNRIPYKDTFWKGTTRTRPRNGTLNKHSGIDFKQLNFLTKLNENHSGELWKGRWQGNDIVVKVLKVRDWSTRKSRDFNEECPRLRIFSHPNVLPVLGACQSPPAPHPTLITHWMPYGSLYNVLHEGTNFVVDQSQAVKFALDMARGMAFLHTLEPLIPRHALNSRSVMIDEDMTARISMADVKFSFQCPGRMYAPAWVAPEALQKKPEDTNRRSADMWSFAVLLWELVTREVPFADLSNMEIGMKVALEGLRPTIPPGISPHVCKLMKICMNEDPAKRPKFDMIVPILEKMQDK
notes: human integrin-linked kinase (ILK), residues 1-452; Stood in the assay within the IPP complex; source: E. coli, co-expressed with PINCH-1 and α-parvin, purified as the IPP complex
- binding result [3]: binds
